The target of series [1] is T1, FRETS-VWF73 substrate, P04275.
T1 chain: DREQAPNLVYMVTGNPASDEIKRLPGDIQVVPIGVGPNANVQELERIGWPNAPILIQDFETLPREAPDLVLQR

Series [2] has as its target von Willebrand factor (VWF), substrate of the in vitro cleavage of Table 1, P04275.

B1: plasma derived ADAMTS13 (pdADAMTS13) (protein)
chain: AAGGILHLELLVAVGPDVFQAHQEDTERYVLTNLNIGAELLRDPSLGAQFRVHLVKMVILTEPEGAPNITANLTSSLLSVCGWSQTINPEDDTDPGHADLVLYITRFDLELPDGNRQVRGVTQLGGACSPTWSCLITEDTGFDLGVTIAHEIGHSFGLEHDGAPGSGCGPSGHVMASDGAAPRAGLAWSPCSRRQLLSLLSAGRARCVWDPPRPQPGSAGHPPDAQPGLYYSANEQCRVAFGPKAVACTFAREHLDMCQALSCHTDPLDQSSCSRLLVPLLDGTECGVEKWCSKGRCRSLVELTPIAAVHGRWSSWGPRSPCSRSCGGGVVTRRRQCNNPRPAFGGRACVGADLQAEMCNTQACEKTQLEFMSQQCARTDGQPLRSSPGGASFYHWGAAVPHSQGDALCRHMCRAIGESFIMKRGDSFLDGTRCMPSGPREDGTLSLCVSGSCRTFGCDGRMDSQQVWDRCQVCGGDNSTCSPRKGSFTAGRAREYVTFLTVTPNLTSVYIANHRPLFTHLAVRIGGRYVVAGKMSISPNTTYPSLLEDGRVEYRVALTEDRLPRLEEIRIWGPLQEDADIQVYRRYGEEYGNLTRPDITFTYFQPKPRQAWVWAAVRGPCSVSCGAGLRWVNYSCLDQARKELVETVQCQGSQQPPAWPEACVLEPCPPYWAVGDFGPCSASCGGGLRERPVRCVEAQGSLLKTLPPARCRAGAQQPAVALETCNPQPCPARWEVSEPSSCTSAGGAGLALENETCVPGADGLEAPVTEGPGSVDEKLPAPEPCVGMSCPPGWGHLDATSAGEKAPSPWGSIRTGAQAAHVWTPAAGSCSVSCGRGLMELRFLCMDSALRVPVQEELCGLASKPGSRREVCQAVPCPARWQYKLAACSVSCGRGVVRRILYCARAHGEDDGEEILLDTQCQGLPRPEPQEACSLEPCPPRWKVMSLGPCSASCGLGTARRSVACVQLDQGQDVEVDEAACAALVRPEASVPCLIADCTYRWHVGTWMECSVSCGDGIQRRRDTCLGPQAQAPVPADFCQHLPKPVTVRGCWAGPCVGQGTPSLVPHEEAAAPGRTTATPAGASLEWSQARGLLFSPAPQPRRLLPGPQENSVQSSACGRQHLEPTGTIDMRGPGQADCAVAIGRPLGEVVTLRVLESSLNCSAGDMLLLWGRLTWRKMCRKLLDMTFSSKTNTLVVRQRCGRPGGGVLLRYGSQLAPETFYRECDMQLFGPWGEIVSPSLSPATSNAGGCRLFINVAPHARIAIHALATNMGAGTEGANASYILIRDTHSLRTTAFHGQQVLYWESESSQAEMEFSEGFLKAQASLRGQYWTLQSWVPEMQDPQSWKGKEGT
Take B1: the “specific activity (FRETS U/antigen U), compared with mixed rADAMTS13 batches” value in series [1] is “the average specific activity of the mixed rADAMTS13 batches is comparable with the specific activity of pdADAMTS13”. Besides, in series [2], the IU VWF RCo/ml left; ADAMTS13 0.1 U/ml, 0 h (IU VWF RCo/ml) stood at 0.75; the IU VWF RCo/ml left; ADAMTS13 0.1 U/ml, 15 seconds (IU VWF RCo/ml) was found to be 0.38; the IU VWF RCo/ml left; ADAMTS13 0.1 U/ml, 30 seconds (IU VWF RCo/ml) amounted to 0.37; the IU VWF RCo/ml left; ADAMTS13 0.1 U/ml, 1 minute (IU VWF RCo/ml) worked out at 0.21. Moreover, in series [2], the IU VWF RCo/ml left; ADAMTS13 0.1 U/ml, 2 minutes (IU VWF RCo/ml) was below 0.17; the IU VWF RCo/ml left; ADAMTS13 0.1 U/ml, 5 minutes (IU VWF RCo/ml) was below 0.17; the IU VWF RCo/ml left; ADAMTS13 0.5 U/ml, 0 h (IU VWF RCo/ml) worked out at 0.78; the IU VWF RCo/ml left; ADAMTS13 0.5 U/ml, 15 seconds (IU VWF RCo/ml) is below 0.17. In series [2], this protein displayed an IU VWF RCo/ml left; ADAMTS13 0.5 U/ml, 30 seconds (IU VWF RCo/ml) below 0.17; an IU VWF RCo/ml left; ADAMTS13 0.5 U/ml, 1 minute (IU VWF RCo/ml) below 0.17; an IU VWF RCo/ml left; ADAMTS13 0.5 U/ml, 2 minutes (IU VWF RCo/ml) below 0.17; an IU VWF RCo/ml left; ADAMTS13 0.5 U/ml, 5 minutes (IU VWF RCo/ml) below 0.17. In addition, in series [2], the IU VWF RCo/ml left; ADAMTS13 1.0 U/ml, 0 h (IU VWF RCo/ml) was 0.26; the IU VWF RCo/ml left; ADAMTS13 1.0 U/ml, 15 seconds (IU VWF RCo/ml) is below 0.17; the IU VWF RCo/ml left; ADAMTS13 1.0 U/ml, 30 seconds (IU VWF RCo/ml) is below 0.17; the IU VWF RCo/ml left; ADAMTS13 1.0 U/ml, 1 minute (IU VWF RCo/ml) is below 0.17. In series [2], this protein came in with an IU VWF RCo/ml left; ADAMTS13 1.0 U/ml, 2 minutes (IU VWF RCo/ml) below 0.17 and an IU VWF RCo/ml left; ADAMTS13 1.0 U/ml, 5 minutes (IU VWF RCo/ml) below 0.17.

These data come from patent publication US20230203469A1.
